# According to US20090098608A1:
# How the values were obtained:
# [1] = molecular target: FLAG-mLangerin.ECD (mouse) (UniProt Q9CS74); assay: Western blot, purified protein in two-fold dilutions, 1 µg/ml antibody
# [2] = molecular target: both N-terminal and C-terminal FLAG tagged proteins; assay: Western blot, serial dilutions
# [3] = molecular target: FLAG-mSIGN-R1.ECD (mouse) (UniProt Q9CS74); assay: Western blot, 293T lysate in two-fold dilutions
lowest amount of purified protein detected by Western blot [1] [ng],times better detection than mAb M2 [2] [times],fold fewer cells detectable than mAb M2 [3] [fold],fold lower detectable amount than mAb M2 [1] [fold],Substance
100,,,,"mouse anti-FLAG mAb M2 (ANTI-FLAG M2, Sigma-Aldrich) (antibody)"
25,2 to 8,8,4,rat anti-FLAG mAb L5 (antibody)
